Source: patent US20220313789A1, “TARGETING MELANOCORTIN 3 RECEPTOR FOR TREATMENT/PREVENTION OF EATING, METABOLISM, AND/OR EMOTIONAL DISORDERS” (The Regents of the University of Michigan, priority 2019, published 2022)
“Also recorded” adds a separate entry of the source. Bridge positions count the residues as written; N and C are the ends. Square brackets hold non-standard residues; d marks the D form. Ends that are not written are not given here. d2Nal = N[C@H](Cc1ccc2ccccc2c1)C(=O)O; Ac6c = NC1(C(=O)O)CCCCC1; Nle = CCCC[C@H](N)C(=O)O

Columns and labels:
MC3R [1] = target: T1, MC3R (Homo sapiens, UniProt P41968); assay: Primary HTS antagonist assay / screen for MC3R antagonists
T1 sequence (P41968 whole entry): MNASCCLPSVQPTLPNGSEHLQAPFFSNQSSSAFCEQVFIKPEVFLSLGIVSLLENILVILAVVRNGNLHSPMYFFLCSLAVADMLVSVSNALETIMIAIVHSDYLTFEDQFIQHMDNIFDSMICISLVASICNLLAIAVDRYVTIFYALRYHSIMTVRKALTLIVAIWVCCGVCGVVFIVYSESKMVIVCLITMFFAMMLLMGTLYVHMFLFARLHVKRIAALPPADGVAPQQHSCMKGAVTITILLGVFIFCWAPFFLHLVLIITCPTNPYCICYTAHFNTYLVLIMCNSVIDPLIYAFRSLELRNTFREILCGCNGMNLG
Source text: Primary HTS antagonist assay. […] (B): Positive and negative assay with kinetics of antagonist and agonist addition indicated. (C): Scatterplot of corrected and normalized data. Typical Z′ factors are above 0.5.

MC4R [2] = target: T2, MC4R (Homo sapiens, UniProt P32245); conditions: cited from earlier work
T2 sequence (P32245 whole entry): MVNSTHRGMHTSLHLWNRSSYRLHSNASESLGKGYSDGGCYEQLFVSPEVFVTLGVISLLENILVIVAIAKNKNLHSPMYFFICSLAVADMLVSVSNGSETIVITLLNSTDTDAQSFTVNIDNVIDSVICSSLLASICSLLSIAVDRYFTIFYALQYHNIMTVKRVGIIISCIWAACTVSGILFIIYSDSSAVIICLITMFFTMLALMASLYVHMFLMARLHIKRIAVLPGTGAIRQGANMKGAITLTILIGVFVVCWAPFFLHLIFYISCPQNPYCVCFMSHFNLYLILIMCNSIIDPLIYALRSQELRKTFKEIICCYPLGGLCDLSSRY

MC3R [3] = target: T1, MC3R; conditions: cited from earlier work
MC4R [4] = target: T2, MC4R; conditions: cited from earlier work; remark: listed apart in the source
MC3R [5] = target: T3, MC3R (Mus musculus, UniProt P33033); assay: MC3R agonist feeding assays (food intake, body weight) in WT mice; format: in vivo; conditions: for Acute food intake: 10 mg/kg, i.p., ad libitum fed mice, relative to vehicle; for 24-hour food intake / body weight: single peripheral injection
T3 construct: from tissue; host or cells: living mice (C57/BL6J background), central nervous system / hypothalamus
T3 sequence (P33033 whole entry): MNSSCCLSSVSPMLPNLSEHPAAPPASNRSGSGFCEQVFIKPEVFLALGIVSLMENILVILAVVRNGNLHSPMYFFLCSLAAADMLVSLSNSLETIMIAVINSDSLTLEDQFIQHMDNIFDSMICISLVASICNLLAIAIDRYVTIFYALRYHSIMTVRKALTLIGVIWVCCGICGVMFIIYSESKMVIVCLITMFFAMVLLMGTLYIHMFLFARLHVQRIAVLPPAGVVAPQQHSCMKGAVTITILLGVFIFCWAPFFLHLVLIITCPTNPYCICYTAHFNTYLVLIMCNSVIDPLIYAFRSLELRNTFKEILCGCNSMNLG
Method: Clozapine-N-Oxide (CNO) was purchased from Enzo Life Sciences. On the day of experiments fresh stock CNO (1 mg/0.1 ml) was prepared in water. CNO was administered via i.p. injections (200 ul Saline; 1 mg/kg). […] (5 ug; 500 nl DMSO).
Behavioral assays were performed on ad libitum fed mice. Mice were single caged for at least one week prior to starting feeding assays. Feeding assays were performed during the light period.
For peripheral administration of MC3R agonist compounds, mice were first habituated to vehicle injections (i.p.; saline in 10% DMSO; 200 ul) for 2-4 consecutive days. Following habituation and consecutive days of stable food intake in response to vehicle injections, agonist compounds were administered (i.p.; 10 mg/kg; saline in 10% DMSO). Food intake was measured following drug or vehicle administration by carefully removing food from the food hopper and weighing on a scale. Cages were changed daily during acute feeding assays to prevent spillage of food from the food hopper.
For central administration of MC3R agonist compounds we first administered vehicle injections (500 nl DMSO) for 2-4 consecutive days to habituate mice to handling and injection. […] Body weight was measured daily immediately prior to injections.

MC3R [6] = target: T1, MC3R; conditions: cited from earlier work; remark: listed apart in the source
[7] = tested on: arcuate MC3R expressing neurons (hM4Di); assay: DREADD (hM4Di) inhibition of arcuate MC3R neurons by CNO; format: in vivo; conditions: hM4Di transfected mice vs WT control
Source text: (§1) FIG. 2. Potent Bidirectional Regulation of Feeding by DREADD Activation of MC3R ARC neurons. (A) Representative images showing hM3Dq-mCherry (red), and cfos (green), in the arcuate nucleus of a mouse transduced with hM3Dq in arcuate MC3R expressing neurons following CNO or saline administration. Panels on right are an enlargement of the boxed sections. (B) Quantification of cfos expression in the arcuate nucleus following i.p. injections of saline or CNO (unpaired Student's t-test). […] (C) Acute feeding assays following DREADD mediated activation of arcuate MC3R neurons. Activation of MC3R neurons increased food intake at all times tested (2-way ANOVA with Bonferroni post-hoc test, n=10 mice). (D) Change in body weight following a single injection of CNO or saline. […] (E) Daily food intake in MC3R-Cre mice targeted with the inhibitory DREADD hM4Di in arcuate MC3R expressing neurons. […] (F) Change in body weight following long term CNO injections in hM4Di transfected and WT mice. […]
(§2) To evaluate the effects of DREADD mediated manipulation of ARC-MC3R neurons on feeding and body weight, mice were habituated to twice daily vehicle injections (i.p., saline; 200 ul). […] Food intake was measured twice daily (10 am and 6 pm) during chronic i.p. injection experiments. Body weight was measured daily at 10 am immediately prior to administering CNO/saline. […]

WT mice = assay: CNO administration to WT mice; format: in vivo
Method: FIG. 9. […] 24-hour food intake following i.p. injections of saline or CNO. […] Data represented as mean+/−s.em. Data analyzed with Student's paired t-test. n=15 mice
Given the enhanced expression of MC3R in the orexigenic arcuate AgRP neurons, relative to POMC and vGLUT2 neurons, experiments were conducted during development of embodiments herein to determine whether the dominant role of MC3R in the arcuate is to stimulate food intake and increase body weight. A previously characterized (Ref. 18; herein incorporated by reference in its entirety) MC3R-Cre mouse model in which Cre recombinase is exclusively expressed in cells containing MC3R was utilized for these experiments. To selectively activate the MC3R expressing neurons in the arcuate, a Cre dependent AAV viral vector expressing the DREADD (designer receptor exclusively activated by designer drugs) activator hM3Dq was stereotaxically targeted to the arcuate nucleus in MC3R-Cre mice (Refs 22-23; herein incorporated by reference in their entireties) (FIG. 2). It was validated that CNO administration activates ARC-MC3R neurons by measuring the neuronal activity marker, cfos, in response to CNO or saline injections. […] To determine if chronic activation of ARC-MC3R neurons is a viable strategy for increasing food intake and body weight CNO was administered twice daily for five consecutive days. […]

[8] = tested on: arcuate MC3R expressing neurons (hM3Dq); assay: DREADD (hM3Dq) activation of arcuate MC3R neurons by CNO; format: in vivo, mice
Source text: as §1, §2

PVN MC4R neurons = assay: In vivo calcium imaging (GCAMP6s endomicroscopy) of PVN MC4R neurons; set-up: species or system mice; conditions: 10 mg/kg, i.p., vs baseline
Method: (left panels): Heat map displaying relative fluorescence, determined by endomicroscopy (Inscopix) of individual PVN MC4R neurons for five minutes of baseline recording, followed by five minutes of recording in response to a saline injection.
D: Change in florescence following i.p. administration of saline. […] F: Change in fluorescence following i.p. administration of the MC3R agonist C18 (10 mg/kg, i.p.). […] G: Heat plot showing real-time change in fluorescence activity in a representative mouse during baseline and following administration of C18. H: Average trace of the relative change in fluorescence before and after C18 administration. […] Data represents mean+/−s.e.m. for panels D-F. Panels D, F, and I analyzed with paired Student's t-test.

For Polymyxin B, the “MC3R over MC4R selectivity” value (MC3R [1]) was “four-fold” and the “potency as MC3R antagonist” value (MC3R [1]; screen of Vanderbilt chemical library) was “submicromolar potency”.

For “[Ac6c-His-DPhe-Arg-Trp-Asp]-NH2 ([Ac6c]H[dF]RWD-NH2; N-terminus assumed; SMILES N=C(N)NCCC[C@H](NC(=O)[C@@H](Cc1ccccc1)NC(=O)[C@H](Cc1c[nH]cn1)NC(=O)C1(N)CCCCC1)C(=O)N[C@@H](Cc1c[nH]c2ccccc12)C(=O)N[C@@H](CC(=O)O)C(N)=O) [FMMC-5, MC3R peptide agonist]”, the IC50 (MC4R [2]) is given as 0.26 µM, the IC50 (MC3R [3]) is given as 0.01 µM and the EC50 (MC4R [4]) is given as 0.28 µM. The Acute food intake (MC3R [5]) was “acutely stimulated food intake”, the 24-hour food intake (MC3R [5]) was “no significant difference” and the body weight (MC3R [5]) was “no significant difference”. The EC50 (MC3R [6]) was 0.03 µM.

With C[N+]1([O-])CCN(C2=Nc3cc(Cl)ccc3Nc3ccccc32)CC1 [CNO, Clozapine-N-Oxide] the “Change in body weight” value ([7]; long term / twice daily CNO) was “reduced BW in hM4Di transfected mice; also recorded: reduced both food intake and BW”, the Daily food intake ([7]; twice daily CNO) was “reduced daily food intake in hM4Di transfected mice; also recorded: reduced both food intake and BW” and the body weight (WT mice; CNO injections, WT littermate control mice) was “No change in food intake or body weight; also recorded: No effect on BW”. The food intake (WT mice; i.p. CNO vs saline, WT / littermate control mice) was “No change in food intake or body weight; also recorded: No difference in food intake was detected”, the “cfos expression in the arcuate nucleus” value ([8]; i.p. CNO vs saline, hM3Dq in arcuate MC3R neurons) was “increased cfos expression in the arcuate nucleus; also recorded: Dense cfos expression was observed in ARC-MC3R neurons” and the “Change in body weight” value ([8]; single injection of CNO or saline, hM3Dq mice, CNO 0.1 mg/kg) was “Body weight increased on the day following CNO injection, remaining elevated five days following CNO injection”.

In the case of “Ac-Nle-c[Asp-Pro-Pro-DNal(2′)-Arg-Trp-Lys]-NH2 (Ac-[Nle]DPP[d2Nal]RWK-NH2; lactam 2-8) [PG990]”, the “Fluorescence activity of PVN MC4R neurons” value (PVN MC4R neurons) is reported as “Fluorescence activity was suppressed”, the Acute food intake (MC3R [5]) is reported as “acutely stimulated food intake” and the weight gain (MC3R [5]; 3 days of treatment) is reported as 8%. For the same compound, the “24 h food intake” value (MC3R [5]; PG990 series of peptides, route not given in the sentence) was “increases 24 h food intake”, the 24-hour food intake (MC3R [5]) was “no significant difference” and the body weight (MC3R [5]) was “no significant difference”.
